Like-named read-outs stand apart in the source and are kept apart here.

Here are results for five molecules from publication PMC2603305 (Biochemistry, 2008).

Data set [1] relates to O=C1C(=O)c2ccccc2-c2ccccc21. Nature of the data set: steady-state NADPH oxidation kinetics. The data set is classed as biochemical, Rattus norvegicus.
The next data set concerns the target T1, Kvβ2:Y90F (Rattus norvegicus, UniProt P62483, Y90F).
T1 sequence (P62483 39-367 Y90F): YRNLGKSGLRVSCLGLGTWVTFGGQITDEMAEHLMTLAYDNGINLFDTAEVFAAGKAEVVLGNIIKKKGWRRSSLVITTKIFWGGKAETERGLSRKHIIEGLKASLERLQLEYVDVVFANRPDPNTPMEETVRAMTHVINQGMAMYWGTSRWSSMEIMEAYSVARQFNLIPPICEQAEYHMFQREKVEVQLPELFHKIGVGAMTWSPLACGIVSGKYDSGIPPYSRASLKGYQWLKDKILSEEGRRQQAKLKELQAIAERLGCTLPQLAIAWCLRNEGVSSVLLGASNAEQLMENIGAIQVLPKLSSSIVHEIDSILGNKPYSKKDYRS
Nature of the data set: intrinsic fluorescence titration. In kind it is binding.

Data set [2] deals with T2, Kvβ2 (β-subunit of the voltage-gated potassium channel) (Rattus norvegicus, UniProt P62483).
T2 sequence (P62483 39-367): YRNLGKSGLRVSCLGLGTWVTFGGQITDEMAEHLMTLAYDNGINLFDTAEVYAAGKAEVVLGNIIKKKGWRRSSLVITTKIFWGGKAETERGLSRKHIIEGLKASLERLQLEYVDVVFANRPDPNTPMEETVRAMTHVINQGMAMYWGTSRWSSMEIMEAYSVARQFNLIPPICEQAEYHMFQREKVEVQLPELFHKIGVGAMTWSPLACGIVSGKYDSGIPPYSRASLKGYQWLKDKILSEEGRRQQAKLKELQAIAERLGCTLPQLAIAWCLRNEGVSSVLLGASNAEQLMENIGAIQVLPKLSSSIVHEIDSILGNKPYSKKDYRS
The experiment in a line: intrinsic fluorescence titration. The data set is classed as binding.

The target in data set [3] is T2, Kvβ2 (β-subunit of the voltage-gated potassium channel). The experiment in a line: NADPH oxidation, specific activity at […]. In kind it is biochemical.
Data set [4] shares this target. The experiment in a line: NADPH oxidation, specific activity at […]. The data set is classed as biochemical. The source holds these as a separate data set.
Substrate in the data set “purified protein”: O=Cc1ccc([N+](=O)[O-])cc1
The experiment in a line: purified protein. Particulars: NADPH active site, Tyr-90 acid-base catalyst; binds after NADPH.

Substrate in data set [5]: CC(=O)c1ccc([N+](=O)[O-])cc1
Nature of the data set: steady-state NADPH oxidation kinetics. In kind it is biochemical, Rattus norvegicus. Particulars: NADPH active site, Tyr-90 acid-base catalyst.

Substrate in data set [6]: CC(=O)C=O
The experiment in a line: steady-state NADPH oxidation kinetics. The data set is classed as biochemical, Rattus norvegicus. Particulars: NADPH.

Regarding “Kvβ2 (β-subunit of the voltage-gated potassium channel) (Rattus norvegicus)”, the Km (in general, the concentration of substrate that gives half-maximal velocity) in data set [1] worked out at 240 ± 140 µM.
With `NC(=O)C1=CN([C@@H]2O[C@H](COP(=O)(O)OP(=O)(O)OC[C@H]3O[C@@H](n4cnc5c(N)ncnc54)[C@H](OP(=O)(O)O)[C@@H]3O)[C@@H](O)[C@H]2O)C=CC1` [NADPH], the Kd – broadly, the equilibrium constant for the complex coming apart – was 0.13 ± 0.011 µM on Kvβ2:Y90F and 0.2 ± 0.005 µM in data set [2].
On to `CCCCC[C@H](O)/C=C/[C@H]1C(=O)C=C[C@@H]1C/C=C\CCCC(=O)O` [PGJ2], for which the “Specific activity” value in data set [3] amounted to 0.086 ± 0.019 min⁻¹.
With `CCCCC/C=C\CC(=O)/C=C/C=C\C/C=C\CCCC(=O)O` [12-oxoETE], the “Specific activity” value in data set [4] was 0.044 ± 0.007 min⁻¹.

B1: Kvβ2 (β-subunit of the voltage-gated potassium channel) (Rattus norvegicus) (protein)
chain: YRNLGKSGLRVSCLGLGTWVTFGGQITDEMAEHLMTLAYDNGINLFDTAEVYAAGKAEVVLGNIIKKKGWRRSSLVITTKIFWGGKAETERGLSRKHIIEGLKASLERLQLEYVDVVFANRPDPNTPMEETVRAMTHVINQGMAMYWGTSRWSSMEIMEAYSVARQFNLIPPICEQAEYHMFQREKVEVQLPELFHKIGVGAMTWSPLACGIVSGKYDSGIPPYSRASLKGYQWLKDKILSEEGRRQQAKLKELQAIAERLGCTLPQLAIAWCLRNEGVSSVLLGASNAEQLMENIGAIQVLPKLSSSIVHEIDSILGNKPYSKKDYRS
On to B1, for which, in “purified protein”, the Km was 283 ± 31 µM, the kcat (usually the maximal rate divided by the concentration of active sites) was found to be 0.00267 s⁻¹ and the kcat/Km (commonly the turnover number divided by the Michaelis constant) came out at 9.83 M⁻¹ s⁻¹. Besides, in data set [5], the Km was found to be 209 ± 49 µM, the kcat came out at 0.00153 ± 0.0001 s⁻¹ and the kcat/Km was determined as 7.67 ± 1.5 M⁻¹ s⁻¹. The Km in data set [6] worked out at 12000 ± 1000 µM.
